Changes are numbered by the printed parent chain. Numbers in names are those of the source.
T1: scMenB (Synechocystis sp. PCC 6803, UniProt P73495)
T1 construct: gene menB; recombinant, purified to homogeneity; homohexamer
T1 sequence (P73495 1-275): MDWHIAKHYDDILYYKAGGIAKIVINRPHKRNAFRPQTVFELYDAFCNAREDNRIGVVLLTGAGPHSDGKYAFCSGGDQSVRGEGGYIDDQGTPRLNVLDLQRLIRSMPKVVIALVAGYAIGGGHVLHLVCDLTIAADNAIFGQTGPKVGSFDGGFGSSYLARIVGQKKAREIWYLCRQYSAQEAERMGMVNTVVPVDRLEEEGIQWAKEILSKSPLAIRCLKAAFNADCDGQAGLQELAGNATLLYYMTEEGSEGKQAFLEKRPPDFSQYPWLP

B1: 1,4-dihydroxy-2-naphthoyl coenzyme A (DHNA-CoA) synthase from Synechocystis sp. PCC 6803 (enzyme)
chain: T1 sequence (P73495 1-275)
notes: DHNA-CoA synthase MenB, Synechocystis sp; PCC 6803; wild type; Crystallised with the small-molecule product analogs HNA-CoA or SA-CoA; also called scMenB; MenB
B2: ecMenB (Escherichia coli K-12; F270A) (protein)
chain: MIYPDEAMLYAPVEWHDCSEGFEDIRYEKSTDGIAKITINRPQVRNAFRPLTVKEMIQALADARYDDNIGVIILTGAGDKAFCSGGDQKVRGDYGGYKDDSGVHHLNVLDFQRQIRTCPKPVVAMVAGYSIGGGHVLHMMCDLTIAADNAIFGQTGPKVGSFDGGWGASYMARIVGQKKAREIWFLCRQYDAKQALDMGLVNTVVPLADLEKETVRWCREMLQNSPMALRCLKAALNADCDGQAGLQELAGNATMLFYMTEEGQEGRNAANQKRQPDFSKFKRNP
notes: recombinant; homohexamer, active site formed by two subunits across the trimer-trimer interface
B3: ecMenB (Escherichia coli K-12; K89A) (protein)
chain: B2 chain with K89A, A270F
notes: as for B2
B4: ecMenB (Escherichia coli K-12; R267A) (protein)
chain: B2 chain with R267A, A270F
notes: as for B2
B5: 1,4-dihydroxy-2-naphthoyl coenzyme A (DHNA-CoA) synthase from Escherichia coli (enzyme)
chain: B2 chain with A270F
notes: DHNA-CoA synthase MenB, Escherichia coli; Crystallised with the small-molecule product analog HNA-CoA; also called ecMenB; MenB

What was measured:
[1] = target: T1, scMenB; assay: X-ray crystal structure, […] Å; format: binding; details: pH 6.0
[2] = target: T1, scMenB; assay: X-ray crystal structure, […] Å; format: binding; details: co-crystal, pH 5.70; active site, product analog; chloride at the bicarbonate site
[3] = target: T2, ecMenB (Escherichia coli, UniProt P0ABU0); assay: X-ray crystal structure, […] Å; format: binding; details: co-crystal, pH 5.5; active site, product analog; chloride at the bicarbonate site
T2 construct: gene menB; recombinant; homohexamer, active site formed by two subunits across the trimer-trimer interface
T2 sequence (P0ABU0 whole entry): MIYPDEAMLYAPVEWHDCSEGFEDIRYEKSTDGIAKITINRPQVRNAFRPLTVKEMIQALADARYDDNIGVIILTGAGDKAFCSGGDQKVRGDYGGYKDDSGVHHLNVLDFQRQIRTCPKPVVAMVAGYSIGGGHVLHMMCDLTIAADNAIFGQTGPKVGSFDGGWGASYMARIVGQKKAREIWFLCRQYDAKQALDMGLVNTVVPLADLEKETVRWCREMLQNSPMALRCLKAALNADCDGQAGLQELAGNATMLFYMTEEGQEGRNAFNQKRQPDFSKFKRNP

[4] = target: the molecule itself; assay: crystal structure; scMenB (5 mg/ml) co-crystallised with 5 mM HNA-CoA; 0.15 M ammonium acetate, 0.3 M ammonium sulfate, 16% PEG 3350, 100 mM Bis-Tris pH 5.70; 2.35 A
[5] = substrate: CC(C)(COP(=O)(O)OP(=O)(O)OC[C@H]1O[C@@H](n2cnc3c(N)ncnc32)[C@H](O)[C@@H]1OP(=O)(O)O)[C@@H](O)C(=O)NCCC(=O)NCCSC(=O)CCC(=O)c1ccccc1C(=O)O; assay: purified protein; format: biochemical, Escherichia coli; details: 200 mM phosphate pH 7.0, 20 mM NaHCO3, OSB-CoA made in situ from SHCHC with MenC and MenE
[6] = target: the molecule itself; assay: crystal structure; ecMenB co-crystallised with HNA-CoA; hanging drop, 294 K; 200 mM (NH4)2SO4, 23% PEG 3,350, 100 mM Bis-Tris pH 5.5; protein 10 mg/ml with 10 mM NaHCO3, 10 mM HNA-CoA, 20 mM KCl; 1.84 A

| Molecule | Km [5] [µM] | kcat [5] [s⁻¹] | kcat/Km [5] [M⁻¹ s⁻¹] | also measured |
| --- | --- | --- | --- | --- |
| O=C(O)O [bicarbonate] |  |  |  | X-ray crystal structure, 2.00 Å ([1]; ternary complex with SA-CoA, bicarbonate site): a bicarbonate ion is found in the place of the chloride ion |
| CC(C)(COP(=O)(O)OP(=O)(O)OC[C@H]1O[C@@H](n2cnc3c(N)ncnc32)[C@H](O)[C@@H]1OP(=O)(O)O)[C@@H](O)C(=O)NCCC(=O)NCCSC(=O)c1ccccc1O [salicyloyl-CoA] |  |  |  | X-ray crystal structure, 2.00 Å ([1]; co-crystal, active site, product analog, bicarbonate bound): structures of the yellowish scMenB: HNA-CoA and colorless scMenB: SA-CoA crystals were also solved |
| CC(C)(COP(=O)(O)OP(=O)(O)OC[C@H]1O[C@@H](n2cnc3c(N)ncnc32)[C@H](O)[C@@H]1OP(=O)(O)O)[C@@H](O)C(=O)NCCC(=O)NCCSC(=O)c1ccc2ccccc2c1O [1-hydroxy-2-naphthoyl-CoA] |  |  |  | X-ray crystal structure, 2.35 Å [2]: structures of the yellowish scMenB: HNA-CoA and colorless scMenB: SA-CoA crystals were also solved; X-ray crystal structure, 1.84 Å [3]: The ecMenB:HNA-CoA complex structure was solved by molecular replacement |
| B1 |  |  |  | stoichiometry N [4]: 6 |
| B2 | 19.7 ± 3.9 | 0.0035 ± 0.000167 | 180 ± 10 |  |
| B3 | 43.3 ± 2.0 | 0.0383 ± 0.00133 | 890 ± 30 |  |
| B4 | 16.6 ± 1.0 | 0.00267 ± 0.000167 | 160 ± 20 |  |
| B5 |  |  |  | stoichiometry N [6]: 6 |
